Assay results from patent US4770993A, “Hybridoma tumor cell lines and their monoclonal antibodies to thaumatin” (Beatrice Companies, Inc., priority 1985, dated 1988).

B1: Thaumatin I: plant thaumatin I (obtained from Sigma Chemical Co.), sweet-tasting protein of Thaumatococcus daniellii, purified on an ion exchange column (protein, UniProt P02883 23-229, looked up)
Thaumatin I: ATFEIVNRCSYTVWAAASKGDAALDAGGRQLNSGESWTINVEPGTNGGKIWARTDCYFDDSGSGICKTGDCGGLLRCKRFGRPPTTLAEFSLNQYGKDYIDISNIKGFNVPMDFSPTTRGCRGVRCAADIVGQCPAKLKAPGGGCNDACTVFQTSEYCCTTGKCGPTEYSRFFKRLCPDAFSYVLDKPTTVTCPGSSNYRVTFCPTA
B2: Thaumatin II: plant thaumatin II, sweet-tasting protein of Thaumatococcus daniellii (protein, UniProt P02884 23-229, looked up)
Thaumatin II: ATFEIVNRCSYTVWAAASKGDAALDAGGRQLNSGESWTINVEPGTKGGKIWARTDCYFDDSGRGICRTGDCGGLLQCKRFGRPPTTLAEFSLNQYGKDYIDISNIKGFNVPMDFSPTTRGCRGVRCAADIVGQCPAKLKAPGGGCNDACTVFQTSEYCCTTGKCGPTEYSRFFKRLCPDAFSYVLDKPTTVTCPGSSNYRVTFCPTA
B3: Performic acid oxidized thaumatin: denatured thaumatin I prepared by incubation of thaumatin I in a chilled performic acid solution (protein, UniProt P02883 23-229, looked up)
Thaumatin I: ATFEIVNRCSYTVWAAASKGDAALDAGGRQLNSGESWTINVEPGTNGGKIWARTDCYFDDSGSGICKTGDCGGLLRCKRFGRPPTTLAEFSLNQYGKDYIDISNIKGFNVPMDFSPTTRGCRGVRCAADIVGQCPAKLKAPGGGCNDACTVFQTSEYCCTTGKCGPTEYSRFFKRLCPDAFSYVLDKPTTVTCPGSSNYRVTFCPTA
modifications: performic acid oxidized
notes: denatured thaumatin I prepared by incubation of thaumatin I in a chilled performic acid solution

Columns and labels:
[1] = tested on: monoclonal antibody of clone No. 29; experiment: Competition assay between native plant thaumatin I and monellin, clone No. 29 antibody; type: binding, mouse
[2] = cited from earlier work; for taste responses: in words
[3] = tested on: clone No. 29 monoclonal antibodies; experiment: Competition ELISA, inhibition of binding of clone No. 29 monoclonal antibodies to native plant thaumatin I; design: species or system mouse
Procedure: (§1) The following procedure is utilized to carry out enzyme linked immunosorbance assays (ELISA) for thaumatin. All reactions are carried out at room temperature and the ELISA plate is covered with Saran brand plastic wrap at all stages and is incubated within a humidified chamber. ELISA plates are coated by placing 10 ng of thaumatin I purified according to the procedure of example 1 in 50 μl of 25 mM NaHCO3 (pH 9.2). This is incubated at room temperature for 2 hours. The plates are washed twice with 400 μl of PBS (50 mM potassium phosphate, 150 mM NaCl, (pH 7.4) and Tween 20 (0.05%)) (a detergent manufactured by Sigma Chemical Co.) and then twice with 400 μl water. The plates are then coated with 200 μl of 1% bovine serum albumin (BSA) in PBS-Tween 20 (0.025% solution) for 2 hours at room temperature. The plates are again washed twice with 400 μl of the PBS-Tween solution and twice with water.
Fifty μl of media from the culture to be tested is then added. Normal, unfused myeloma cell (Sp2-0/Ag-14) media is used as the negative control. […] The media is then incubated for at least four hours at room temperature. The plates are then again washed twice with 400 μl of PBS-Tween 20 solution and then twice with water. Fifty μl of a 1:100 dilution of rabbit anti-mouse light K and λ chain immunoglobulin is added and this is incubated for 2 hours at room temperature. The plates are again washed twice with 400 μl of 0.5% PBS-Tween 20 solution and twice with water. Fifty μl of conjugated goat anti-rabbit IgG peroxidase at a 1:1000 dilution is then added and incubated for 1 hour at room temperature. The plates are once more washed twice with 400 μl PBS-Tween 20 solution and twice with water.
(§2) Fifty μl of O-phenylenediamine dihydrochloride (OPD) solution containing 0.01% of H2 O2 is added to each well (OPD solution comprises 18 mg of OPD per 30 ml of staining buffer which itself comprises 4.86 ml of 0.5 M citric acid and 10.28 ml of 0.5 M Na2 HPO4 diluted up to 100 ml with water). The H2 O2 should be added to the OPD only seconds before application. This mixture is then incubated for 5-15 minutes at room temperature until the reaction is stopped by addition of 50 μl of 4N H2 SO4. The optical density of the wells is then measured at 490 nm by a Bio-Tek ELISA reader.
(§3) In this example inhibition effect of recombinant yeast produced thaumatin analogue-glutathione adduct and of performic acid oxidized thaumatin on binding of clone No. 29 monoclonal antibodies to native plant thaumatin I was evaluated. ELISA plates were coated with 10 ng of native plant thaumatin I per well. The antibodies were preincubated with control buffer or with various amounts of test materials for 2 hours and were added to the plates. The plates were then developed according to the ELISA procedure of Example 3.

[4] = in words; cited from earlier work
[5] = tested on: clone No. 3 monoclonal antibodies; experiment: Competition ELISA, inhibition of binding of clone No. 3 monoclonal antibodies to native plant thaumatin I; design: species or system mouse
Procedure: as §1
Fifty μl of media from the culture to be tested is then added. Normal, unfused myeloma cell (Sp2-0/Ag-14) media is used as the negative control. Mouse serum at a dilution of 1:500 or greater is used as a positive control. The media is then incubated for at least four hours at room temperature. The plates are then again washed twice with 400 μl of PBS-Tween 20 solution and then twice with water. Fifty μl of a 1:100 dilution of rabbit anti-mouse light K and λ chain immunoglobulin is added and this is incubated for 2 hours at room temperature. The plates are again washed twice with 400 μl of 0.5% PBS-Tween 20 solution and twice with water. Fifty μl of conjugated goat anti-rabbit IgG peroxidase at a 1:1000 dilution is then added and incubated for 1 hour at room temperature. The plates are once more washed twice with 400 μl PBS-Tween 20 solution and twice with water.
as §2
as §3, with “example, the” for “example”, “oxidized plant” for “oxidized”, “3” for “29”

Molecule	Inhibition (%) ([1]; amount of protein 10 ng)	Inhibition (%) ([1]; amount of protein 50 ng)	Inhibition (%) ([1]; amount of protein 100 ng)	Inhibition (%) ([1]; amount of protein 1 μg)	Inhibition (%) ([1]; amount of protein 10 μg)	Inhibition (%) ([1]; amount of protein 100 μg)	taste responses [2]	Inhibition of Binding (%) ([3]; addition 100 ng)	Inhibition of Binding (%) ([3]; addition 200 ng)	Inhibition of Binding (%) ([3]; addition 500 ng)	Inhibition of Binding (%) ([3]; addition 1 μg)	Inhibition of Binding (%) ([3]; addition 2 μg)	cariogenicity [4]	toxicity [4]	Inhibition of Binding (%) ([5]; addition 100 ng)	Inhibition of Binding (%) ([5]; addition 200 ng)	Inhibition of Binding (%) ([5]; addition 500 ng)	Inhibition of Binding (%) ([5]; addition 1 μg)	Inhibition of Binding (%) ([5]; addition 2 μg)	other results
Monellin	not detectable	not detectable	not detectable	15	60	98	–	–	–	–	–	–	–	–	–	–	–	–	–	concentration inhibiting binding relative to thaumatin ([1]; monellin versus thaumatin): ten fold greater
B1	not detectable	not detectable	25%	62.5	94	95	elicit profound taste responses	5	30	51	65	80	non-cariogenic	non-toxic	16	30	50	60	80	sweetness relative to sucrose ([2]; on a weight basis): about 5000 times sweeter than sucrose
B2	–	–	–	–	–	–	elicit profound taste responses	–	–	–	–	–	non-cariogenic	non-toxic	–	–	–	–	–	–
B3	–	–	–	–	–	–	–	8	29.5	49	64	82	–	–	0	0	0	0	6	competition with native plant thaumatin I for clone No. 29 antibody ([3]; in words): compete effectively; inhibition in the assay ([5]; preincubation with clone No. 3 antibody, in words): little or no inhibition
